For orientation: IC50 means the concentration that gives 50% inhibition.

Where a SMILES comes first, the peptide text is derived from it. Bridges are numbered along the chain shown (N, C = ends). Where no end group is shown, it is not given here.

RGS4, sequence (P49798 whole entry, species assumed): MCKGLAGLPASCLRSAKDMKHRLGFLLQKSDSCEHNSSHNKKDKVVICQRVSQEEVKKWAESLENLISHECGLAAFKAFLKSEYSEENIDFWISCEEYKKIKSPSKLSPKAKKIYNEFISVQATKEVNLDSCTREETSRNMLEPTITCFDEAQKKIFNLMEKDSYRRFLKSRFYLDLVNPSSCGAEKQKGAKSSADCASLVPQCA

One test addresses RGS4 (Homo sapiens, UniProt P49798). In words: Steady-state GTPase assay, RGS4-stimulated, CHO cell membranes expressing α2a AR. In kind it is biochemical. More on the design: key to Activity (inhibitory activity, relative scale): −: —(no inhibition); relative scale from—(no inhibition) to +++. The following applies: RGS-stimulated GTPase activity. The protocol: (§1) In some embodiments, the membrane assay comprises a GTPase assay (See e.g, Berman et al., J. Biol. Chem., 271:27209 [1996] and Berman et al., Cell 86:445 [1996]). In such embodiments, α2A adrenergic receptor expressing membranes are pre-incubated with γ-^32P GTP and RGS proteins. In some embodiments, membranes contain both α2A adrenergic receptor and Gαo subunits, allowing measurement of both Gi and Go-coupled RGS proteins. In some embodiments, a steady-state GTPase assay is utilized to assay RGS inhibitors (See e.g., Wise and Milligan, J. Biol. Chem., 272:24673 [1997]).
This example describes a novel method of assaying for inhibitors of RGS-mediated GTPase Acceleration. A modified version of the [^35S] GTPγS binding method described in Wieland et al., 1994 (Wieland et al., Methods Enzymol. 237:3 [1994]) was utilized, with the exception that an RGS protein was included to enhance the receptor stimulation of GTPγS binding. RGS-mediated enhancement of receptor-stimulated [^35S]GTPγS binding was determined in CHO cell membranes expressing high densities (10-20 pmol/mg) of receptor. The method is not limited to the alpha 2a adrenergic receptor or the CHO membrane described herein. The membrane can be from other cell types and/or expressing other G protein coupled receptors (e.g., including, but not limited to, other Gi coupled receptors).
The assay buffer was 50 mM Tris, 5 mM MgCl2, 1 mM EDTA, 100 mM NaCl, 1 mM DTT, pH 7.6. The reaction mixture also contained the following components. Some preferred embodiments include at least one of the components marked with an *. • 1. High nanomolar or low micromolar concentrations (typically 1 μM) of GDP.* • 2. 4 μg of Chinese hamster ovary (CHO) membranes expressing the alpha 2a adrenergic receptor (α2AAR) at a receptor density of ˜10-20 pmol/mg. α2AAR-CHO membranes were prepared as previously described (Wade et al., Mol. Pharmacol. 56: 1005 [1999]). Membranes were re-suspended in Tris/MgCl2/EGTA (TME) buffer (50 mM Tris, 10 mM MgCl2, 1 mM EGTA, pH 7.6) and were aliquoted before being frozen in liquid N2 and stored at −80° C. until use. The receptor density in the α2aAR-CHO membranes was determined by [^3H] yohimbine binding and Bradford assay (Bradford, Anal. Biochem. 72: 248 [1976]). • 3. 0.2 nM-50 nM [^35S]GTPγS. A low concentration with respect to the higher concentrations of G protein and GTP utilized is necessary*. • 4. Saturating concentration of agonist for the receptor type utilized. UK 14,304 (10 μM). • 5. RGS proteins at μM or high nM ranges. • 6. GTP at high nM or low μM ranges. This is the most critical component of this method, since the massive GTP hydrolysis accelerated by RGS promotes formation of the empty DRG state which is detected by the low concentration of [^35S]GTPγS.*
Activity was measured by use of CHO cell membranes expressing the α2a AR at high levels (10-20 pmol/mg) described in Example 1 above.
Subsequently, a series of constrained peptides (Table 3) was prepared and the inhibitory activity tested. The inhibitory activity is shown in Table 3 as a relative scale from—(no inhibition) to +++.
VKTTGIVE: the “Inhibition of RGS-mediated GTPase acceleration (in words)” value is “no activity”.

The test is the same for the next values; noted with them: inhibition of RGS4-mediated GTPase acceleration.
Consider “ES2(Et) (VKCTGFCE; cysteine pairing not given here; also: Et modification)”, for which the “Activity (inhibitory activity, relative scale)” value was “+++”. With “JO1(Et) (VKCTGICE; cysteine pairing not given here; also: Et modification)”, the “Activity (inhibitory activity, relative scale)” value is listed as “−”. Same read-out and setting: the value for “YJ4(Et) (VKCTSICE; bridge 3-7; also: Et modification, place not given here, cross-link 3-7: disulfide, thioether or lactam)” was “+++”.

As for “YJ5(Et) (KCTSICE; cysteine pairing not given here; also: Et modification)”, the “Activity (inhibitory activity, relative scale)” value was “−”. “YJ6(Et) (VKCTSICE; bridge 3-7; also: Et modification, place not given here, cross-link 3-7: disulfide, thioether or lactam)”: the “Activity (inhibitory activity, relative scale)” value was “−”. The same measure, in the same setting: the value for “YJ15(Et) (VKCTGICE; bridge 3-7; also: Et modification, place not given here, cross-link 3-7: disulfide, thioether or lactam)” was “−”.

The test is the same for the next values; noted with them: steady-state membrane GTPase assay.
Compound `CC[C@H](C)[C@@H]1NC(=O)CNC(=O)[C@H]([C@@H](C)O)NC(=O)[C@@H](NC(=O)[C@H](CCCCN)NC(=O)[C@@H](NC(C)=O)C(C)C)CSCCSC[C@@H](C(=O)N[C@@H](CCC(=O)O)C(N)=O)NC1=O` [JMRAc(Et)] (HELM PEPTIDE1{[ac].V.K.C.T.G.I.C.E.[am]}|CHEM1{[C(C[*:2])[*:1]]}$PEPTIDE1,CHEM1,4:R3-1:R1|PEPTIDE1,CHEM1,8:R3-1:R2$$$V2.0) came in with an IC50 of 88 µM.

As for `CC[C@H](C)[C@@H]1NC(=O)CNC(=O)[C@H]([C@@H](C)O)NC(=O)[C@@H](NC(=O)[C@H](CCCCN)NC(=O)[C@@H](NC(C)=O)C(C)C)CCCNC(=O)CC[C@@H](C(=O)N[C@@H](CCC(=O)O)C(N)=O)NC1=O` [YJ13(lactam)] (HELM PEPTIDE1{[ac].V.K.[Orn].T.G.I.E.E.[am]}$PEPTIDE1,PEPTIDE1,4:R3-8:R3$$$V2.0), the half-maximal inhibitory concentration (IC50) worked out at 25 µM.

Take `CC[C@H](C)[C@@H]1NC(=O)CNC(=O)[C@H]([C@@H](C)O)NC(=O)[C@@H](NC(=O)[C@H](CCCCN)NC(=O)[C@@H](NC(C)=O)C(C)C)CCC(=O)NCCCC[C@@H](C(=O)N[C@@H](CCC(=O)O)C(N)=O)NC1=O` [YJ14(lactam)] (HELM PEPTIDE1{[ac].V.K.E.T.G.I.K.E.[am]}$PEPTIDE1,PEPTIDE1,4:R3-8:R3$$$V2.0): the IC50 came to 260 µM. On the same count and under the same terms, the value for `CC[C@H](C)[C@@H]1NC(=O)CNC(=O)[C@H]([C@@H](C)O)NC(=O)[C@@H](NC(=O)[C@H](CCCCN)NC(=O)[C@@H](NC(C)=O)C(C)C)CSCSC[C@@H](C(=O)N[C@@H](CCC(=O)O)C(N)=O)NC1=O` [Yja] (HELM PEPTIDE1{[ac].V.K.C.T.G.I.C.E.[am]}|CHEM1{[C([*:1])[*:2]]}$PEPTIDE1,CHEM1,4:R3-1:R1|PEPTIDE1,CHEM1,8:R3-1:R2$$$V2.0) was 79 µM; that for `CC[C@H](C)[C@@H]1NC(=O)CNC(=O)[C@H]([C@@H](C)O)NC(=O)[C@@H](NC(=O)[C@H](CCCCN)NC(=O)[C@@H](NC(C)=O)C(C)C)CSSC[C@@H](C(=O)N[C@@H](CCC(=O)O)C(N)=O)NC1=O` [Yjb] (HELM PEPTIDE1{[ac].V.K.C.T.G.I.C.E.[am]}$PEPTIDE1,PEPTIDE1,4:R3-8:R3$$$V2.0) was 26 µM.

A further test concerns the target T1, RGS8 (Homo sapiens, UniProt P57771).
T1 sequence (P57771 1-180): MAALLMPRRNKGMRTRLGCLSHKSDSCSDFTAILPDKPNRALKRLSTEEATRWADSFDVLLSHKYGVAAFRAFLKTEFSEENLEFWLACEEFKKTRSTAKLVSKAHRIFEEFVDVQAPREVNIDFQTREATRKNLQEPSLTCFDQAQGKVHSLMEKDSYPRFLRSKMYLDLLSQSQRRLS
Put plainly: Steady-state membrane GTPase assay, RGS8-stimulated. It counts as biochemical.
Details: not given
As for the experimental part:
as §1
In addition to the inhibitory activity against RGS4 mediated GTPase acceleration, three of the peptides found to be most inhibitory against RGS4 were tested for their ability to inhibit RGS8 stimulated GTPase activity.
For `CC[C@H](C)[C@@H]1NC(=O)CNC(=O)[C@H]([C@@H](C)O)NC(=O)[C@@H](NC(=O)[C@H](CCCCN)NC(=O)[C@@H](NC(C)=O)C(C)C)CCCNC(=O)CC[C@@H](C(=O)N[C@@H](CCC(=O)O)C(N)=O)NC1=O` [YJ13(lactam)] (HELM PEPTIDE1{[ac].V.K.[Orn].T.G.I.E.E.[am]}$PEPTIDE1,PEPTIDE1,4:R3-8:R3$$$V2.0), half-maximal inhibition (IC50) required 161 µM.

In the case of `CC[C@H](C)[C@@H]1NC(=O)CNC(=O)[C@H]([C@@H](C)O)NC(=O)[C@@H](NC(=O)[C@H](CCCCN)NC(=O)[C@@H](NC(C)=O)C(C)C)CCC(=O)NCCCC[C@@H](C(=O)N[C@@H](CCC(=O)O)C(N)=O)NC1=O` [YJ14(lactam)] (HELM PEPTIDE1{[ac].V.K.E.T.G.I.K.E.[am]}$PEPTIDE1,PEPTIDE1,4:R3-8:R3$$$V2.0), the IC50 worked out at 840 µM.

The values are drawn from US7432242B2, “Inhibitors of RGS proteins” (The Regents of the University of Michigan, priority 2002, dated 2008).
